Measured values: patent US20090023152A1 (published 2009)

T1: RFX5 (human, UniProt P48382 2-616)
T1 construct: also called RFX5 subunit of RFX
T1 sequence (looked up): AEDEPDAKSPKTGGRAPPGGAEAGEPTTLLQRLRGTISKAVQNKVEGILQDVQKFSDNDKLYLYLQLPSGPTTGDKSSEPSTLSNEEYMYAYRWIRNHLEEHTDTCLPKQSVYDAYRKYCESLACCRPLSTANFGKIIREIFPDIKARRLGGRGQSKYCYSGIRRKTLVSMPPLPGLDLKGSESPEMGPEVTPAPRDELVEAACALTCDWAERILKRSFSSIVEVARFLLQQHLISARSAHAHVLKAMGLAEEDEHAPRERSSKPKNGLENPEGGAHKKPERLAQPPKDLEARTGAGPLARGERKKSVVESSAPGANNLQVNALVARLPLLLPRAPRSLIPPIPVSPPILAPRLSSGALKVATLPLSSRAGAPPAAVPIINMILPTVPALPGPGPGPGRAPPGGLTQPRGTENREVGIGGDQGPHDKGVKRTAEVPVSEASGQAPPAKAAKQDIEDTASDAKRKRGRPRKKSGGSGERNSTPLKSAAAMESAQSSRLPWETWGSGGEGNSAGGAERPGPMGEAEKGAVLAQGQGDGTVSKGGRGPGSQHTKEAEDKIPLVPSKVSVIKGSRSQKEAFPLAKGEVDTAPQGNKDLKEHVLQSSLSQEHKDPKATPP

B1: RFXAP (other, human, UniProt O00287 1-272, looked up)
chain: MEAQGVAEGAGPGAASGVPHPAALAPAAAPTLAPASVAAAASQFTLLVMQPCAGQDEAAAPGGSVGAGKPVRYLCEGAGDGEEEAGEDEADLLDTSDPPGGGESAASLEDLEDEETHSGGEGSSGGARRRGSGGGSMSKTCTYEGCSETTSQVAKQRKPWMCKKHRNKMYKDKYKKKKSDQALNCGGTASTGSAGNVKLEESADNILSIVKQRTGSFGDRPARPTLLEQVLNQKRLSLLRSPEVVQFLQKQQQLLNQQVLEQRQQQFPGTSM
notes: also called RFXAP subunit of RFX
B2: FLAG-RFXANK (other)
chain: DYKDDDDKMELTQPAEDLIQTQQTPASELGDPEDPGEEAADGSDTVVLSLFPCTPEPVNPEPDASVSSPQAGSSLKHSTTLTNRQRGNEVSALPATLDSLSIHQLAAQGELDQLKEHLRKGDNLVNKPDERGFTPLIWASAFGEIETVRFLLEWGADPHILAKERESALSLASTGGYTDIVGLLLERDVDINIYDWNGGTPLLYAVRGNHVKCVEALLARGADLTTEADSGYTPMDLAVALGYRKVQQVIENHILKLFQSNLVPADPE
notes: In vitro translated

How the values were obtained:
[1] = molecular target: MHC-II enhanceosome assembled on the DRA promoter fragment (human) (UniProt P48382); assay: promoter pull-down from crude cell extracts, immunoblot
RFX5 = molecular target: T1, RFX5; assay: EMSA supershift of co-translated subunits on X box probe
RFXAP = molecular target: B1; assay: as above

percent of the CIITA recruited [1] [%]	binding result (RFX5)	binding result (RFXAP)	Molecule
< 1			CIITA (wild type) (from UniProt P33076 1-1130)
	binds		B1
	binds	binds	B2
